Data: the supplement of paper PMC10567573

B1: STK38L (parent)
chain: NWKETLVFPPEVPISEKAKDLILR
B2: GFOD1 (parent)
chain: EEAEELAKEMSVPFYTSRIDEVLL

Variants of: B1
Assay: protein stability index of a GFP-peptide fusion (GPS, HEK-293T) (PSI 1-6); higher = more stable
Conditions: c terminus: a fixed tail appended
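Also: lentivirally expressed fusions sorted by FACS into six bins by GFP to DsRed ratio, PSI derived from sequencing read proportions per bin multiplied by bin number.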

Protein stability index: each site, then its substitutions
E4: M 2.58 | D 3.01 | F 2.29 | Q 2.62 | Y 1.32 | G 2.31 | P 2.85 | A 2.1
F8: T 3.58 | V 3.75 | Q 3.53
K19: T 3.41 | M 2.19 | H 2.78 | C 2.87 | I 2.01
L6: H 2.61 | S 3.62 | V 3.15 | Q 3.87 | M 3.31
P10: M 2.8 | F 1.8 | G 2.49 | K 3.03 | A 2.65 | V 3.02
R24: D 4.32 | S 3.31 | L 2.03 | N 3.96 | V 1.91 | E 3.57
W2: F 3.37 | A 4.45 | Q 4.21 | Y 3.25 | C 3.67 | H 3.46 | R 3.39
E16: D 3.64 | S 2.33 | Y 2.5
A18: I 1.89 | F 3.06 | L 1.8 | W 2.65 | T 3.41 | S 3.32 | K 3.4 | H 2.54 | P 3.1
K3: H 3.68 | A 3.37 | F 1.64 | E 3.41 | V 2.53 | N 3.46
S15: V 2.31 | P 2.68 | L 1.84 | T 3.27 | R 2.79 | Q 3.87 | M 3.37
P9: E 2.75 | M 2.05 | W 1.56 | H 2.57 | T 2.9 | L 2.32 | N 2.78
D20: M 1.94 | I 1.52 | A 2.92 | R 2.94 | W 1.92
I22: V 3.06 | R 4.04 | E 4.54 | G 3.23
L21: E 4.66 | H 3.48 | W 2.58 | R 3.62 | Q 3.41 | M 3.42 | T 4.44 | G 3.81 | C 3.62
K17: I 1.92 | P 3.41 | T 3.7 | S 4.07 | H 2.98
N1: R 2.74 | V 2.41 | D 3.57 | Y 2.44 | Q 3.09 | P 3 | C 3.1
P13: V 3.67 | T 2.44 | Y 1.97 | M 2.36
E11: I 2.52 | F 1.92 | V 3.03 | G 2.65 | D 3.15 | C 2.89
I14: C 3.19 | D 4.44
L23: P 3.9 | D 4.92 | W 2.12 | F 2.9 | I 3.24 | G 4.47 | Q 4.22
V7: I 3.09 | K 2.95 | N 3.63 | S 2.54 | G 4.56
V12: I 3.52 | G 2.92 | S 3.86 | P 3.48 | E 3.72
T5: C 2.44 | S 2.87 | W 2.05 | M 2.75 | V 2.61

Variants of: B2
Assay: as above
Conditions: c terminus: a fixed tail appended

Protein stability index of substitutions, site by site:
E4: F 2.98 | P 3.6 | D 3.97 | C 2.73 | S 3.93 | R 3.52 | T 3.86 | L 2.9 | K 3.46 | I 3.51 | G 3.4
S17: W 3 | P 4.43 | F 1.79 | N 4.04 | L 2.09 | R 3.9
Y15: T 4.91 | Q 4.42 | L 3.67 | S 5.01 | M 4.14 | C 3.97 | I 3.62 | R 4.2 | W 3.1
L23: T 3.87 | I 3.66 | W 3.02 | G 3.66 | F 2.98
E9: H 3.2 | V 3.1 | D 3.93 | Y 2.94 | R 2.7 | M 3.03 | I 2.15 | Q 3.17 | L 2.16
E21: V 2.45 | K 2.56 | Y 2.66 | D 4.08 | M 1.78 | L 1.61
K8: P 3.59 | N 3.39 | E 4.17 | V 2.85 | C 2.9 | D 3.94 | I 2.76 | G 4.1
E5: M 2.95 | V 2.58 | H 3.6 | I 2.57 | F 2.94 | D 3.93 | P 3.96
M10: Y 3.63 | H 4.53 | Q 4.26 | L 2.62 | D 4.7 | I 3.57 | G 4.22 | V 3.84 | S 4.12 | W 4.5 | C 4.53 | R 3.81
V12: L 3.67 | R 3.89 | A 3.2 | T 4.2 | P 4.14 | N 4.56 | C 3.71
D20: I 1.9 | G 2.42 | Y 2.47 | Q 3.79 | P 3.55 | H 2.73 | V 2.08 | R 3.04 | A 2.74 | T 2.66 | W 2.59
L24: Y 3.2 | T 4.22 | Q 4.78 | H 3.18 | N 4.6 | G 4.11
A3: K 4.38 | E 4.32
V22: P 4.24 | A 4.53 | C 3.7 | L 3.1 | E 5.12 | Y 3.78 | T 4.51 | F 3.73 | H 4.68 | S 3.86
I19: G 4.48 | F 3.01 | Y 4.64 | K 4.41 | L 3.69 | A 4.54 | R 4.57
P13: T 4.03 | M 3.32 | N 3.78 | C 3.27 | H 2.54 | E 3.97 | V 2.74 | W 1.97 | S 3.47 | Q 3.47
T16: C 3.81 | K 3.7 | N 4.17 | P 3.65 | S 3.27 | V 3.45 | G 3.78 | F 2.33 | I 3.08 | M 3.03 | L 2.75 | W 2.32 | Y 2.27
S11: I 3.29 | D 4.5 | L 4.46 | E 4.74 | T 4.12 | P 3.87 | F 2.72 | A 3.51 | G 2.97 | K 3.17 | H 4.04
R18: K 4.26 | A 4.26 | E 4.65 | Y 4.04 | N 4.4 | F 3.17 | I 2.92 | L 3.05 | S 4.56 | M 3.43
E2: G 3.39 | W 3.66 | D 3.72 | Y 2.39 | T 3.2 | A 3.66
F14: M 3.83 | E 4.4 | G 3.4 | S 4.37 | K 4.2 | T 4.51 | R 4.22 | N 4.68 | L 3.79 | I 4.05 | V 3.86
A7: G 4 | L 2.93 | W 2.39 | H 4.2 | D 4.62 | S 3.6 | M 3.14 | N 4.02 | T 3.79
E1: G 2.43 | M 3.45 | N 2.83 | Y 2.98 | C 3.08 | L 3.75
L6: T 4.46 | C 4.38 | P 4.26 | D 4.99 | V 3.94 | S 4.19
